The text below walks through data of patent publication US20260242450A1.

Assay [1] addresses HIV-1 envelope proteins of the panel of 12 global reference pseudovirus strains of HIV-1 ("global panel").
In assay [2] the target is HIV-1 envelope proteins of the panel of 8 pseudoviruses insensitive against neutralization by CD4bs bNAbs (constituents of the 119 multiclade panel).
Assay [3] addresses HIV-1 envelope proteins of the multiclade panel of 119 pseudoviruses.
Assay [4] has as its target HIV-1 envelope proteins of the panel of 100 clade C HIV-1 pseudoviruses (Subtype C panel).
Assay [5] concerns the target HIV-1 envelope proteins of the panel of 7 pseudoviruses selected from the "Resistant panel to CD4bs bNAbs".
Assay [6] concerns the target HIV-1 envelope proteins of the panel of 9 pseudoviruses resistant against CD4bs bNAbs (constituents of the 119 multiclade and Subtype C panels).
In assay [7] the target is HIV-1 envelope proteins of the panel of 185 pseudoviruses generated from virus sequences obtained from the Antibody Mediated Prevention (AMP) trials.

Some results are limits rather than exact numbers.

B1: 05_C07 (antibody, V domains shown)
VH: HVQLWQSGAEVKKPGASVKISCSAWGFGTRSGYTFRDYRIHWVRQVPRQGFEWMGHLHPAYGAVNYARQFQGRIIMTREVSFDGSGGTVYMELRSLRSDDTATYYCVTHKLYDGEDASDLTWRLDPWGQGTRVTVSS
VL: GVSLTQSPASLCASVGDRVTFTCQASQDITNAINWYQLRPGKTPKLMIHDGSTLRRGVPSRFAGSGFGTRFTFTIDNLQPEDLATYFCQHYEFFPPAGTQVDFN
In the case of B1, in assay [1], the geometric mean IC50, TZM-bl cell pseudovirus neutralization assay is < 0.05 µg/mL and the neutralizing activity, TZM-bl cell pseudovirus neutralization assay (breadth) was 100%.

B2: 01_D03 (antibody, V domains shown)
VH: HVQLWQSGAEVKKPGASVKISCSAWGFGTTSGYSFRDYRVHWVRHIAGQGFQWMGHMQPRYGAVNYARQFQGRITMTREVSFDASGGTAYMELRSLRSDDTAVYYCVTHKLYDGEDASDLTWRLDPWGQGTRVIVSS
VL: GVHLTQSPASLSASVGDRVTFTCQASQDITNAINWYQLRPGKTPKLMIHDGSTLRRGVPSRFAGSGFGTKFTFTIDNLQPEDLATYFCQHYEFFPPVGTQVELN
In assay [1], B2 gave a geometric mean IC50, TZM-bl cell pseudovirus neutralization assay of 0.021 µg/mL. In addition, the neutralizing activity, TZM-bl cell pseudovirus neutralization assay (breadth) in assay [1] was 100%; in assay [2] it was 88%.

B3: 01_B01 (antibody, V domains shown)
VH: HVQLWQSGAEVKKPGASVKISCAAWGFGTTSGYSFRDYRIHWVRQVPGQGFQWMGHIQPRYGAVNYAHQFQGRITMTREVSFDASGGTAYMELRSLRSDDTATYYCVTHKLYDGEDASDLAWRLDPWGQGTRVTVSS
VL: GVHLTQSPASLSASVGDRVTFTCQASQDITNAINWYQLRPGKTPKLMIHDGSTLRRGVPSRFAGGGFGTKFTFTIDNLQPEDLATYFCQHYEFFPPAGTQVELN
On to B3, for which, in assay [1], the geometric mean IC50, TZM-bl cell pseudovirus neutralization assay was < 0.05 µg/mL and the neutralizing activity, TZM-bl cell pseudovirus neutralization assay (breadth) amounted to 100%.

B4: 04_A06 (antibody, V domains shown)
VH: SVRLDQSGTAVKKPGASVRVSCRAPDSFTVYRPRLSAYFIGEFNIHWLRQAPGQGLEWLGFVNIFRGAVKYSSRFQGRITITRDTSSETSYLDLGALKADDTATYYCAWDKNVDDNPWRLDSWGQGTLVIVSS
VL: YIQVTQSPSSLSASIGDTITVACEVSQDVGWAVNWYHQRPGRPPYNLIYTAHNLAPGVASRFRGSRVGTYFTLTINNLLPEDVGTYYCQVFDSFAPGGTRVDLR
Turning to B4, the geometric mean IC50, TZM-bl cell pseudovirus neutralization assay in assay [1] was 0.038 µg/mL; in assay [3], 0.036 µg/mL; in assay [4], 0.057 µg/mL. The neutralizing activity, TZM-bl cell pseudovirus neutralization assay (breadth) in assay [1] is 100%; in assay [3] it was 99%; in assay [4] it was 99%; in assay [5] it was 86%; in assay [6], 100%; in assay [7] it was < 98%. For the same molecule, the IC50, TZM-bl cell pseudovirus neutralization assay in assay [5] came to 0.153 µg/mL. In assay [7], the GeoMean IC50, TZM-bl cell pseudovirus neutralization assay turned out to be 0.084 µg/mL.

B5: 04_B09 (antibody, V domains shown)
VH: SVRLDQSGTAVKKPGASVRVSCRAPDSFTVYRPRLSAYFIGEFNIHWLRQAPGQGLEWLGFVNIFRGAVKYSSAFRGRITITRDTSLETSYLDLGALKPDDTATYFCAWDKNVDDNPWRLDSWGQGTLVVVSS
VL: YIQVTQSPSSLSASVGDTITVACQVSQDVGWAVNWYHQRPGRPPYNLIYTTSNLAPGVASRFRGTRVATYFTLTINNLLPEDVGTYYCQVFESFAPGGTRVDLR
As for B5, in assay [1], the geometric mean IC50, TZM-bl cell pseudovirus neutralization assay is < 0.05 µg/mL and the neutralizing activity, TZM-bl cell pseudovirus neutralization assay (breadth) stood at 100%.
